{
  "source": "patent US20210318312A1",
  "about": "(TRUSTEES OF PRINCETON UNIVERSITY, published 2021)",
  "binders": {"B1": {"name": "SIRT4-EGFP (enzyme)", "chain": "IGLFVPASPPLDPEKVKELQRFITLSKRLLVMTGAGISTESGIPDYRSEKVGLYARTDRRPIQHGDFVRSAPIRQRYWARNFVGWPQFSSHQPNPAHWALSTWEKLGKLYWLVTQNVDALHTKAGSRRLTELHGCMDRVLCLDCGEQTPRGVLQERFQVLNPTWSAEAHGLAPDGDVFLSEEQVRSFQVPTCVQCGGHLKPDVVFFGDTVNPDKVDFVHKRVKEADSLLVVGSSLQVYSGYRFILTAWEKKLPIAILNIGPTRSDDLACLKLNSRCGELLPLIDPC", "notes": "Stably expressed in MRC5 fibroblasts and immunoisolated from mitochondrial lysate with anti-GFP beads; also called SIRT4-OE; not shown: EGFP (enhanced green fluorescent protein, ORF of pEGFP-N1), fused C-terminal of SIRT4; linker"}, "B2": {"name": "endogenous SIRT4 (enzyme)", "chain": "IGLFVPASPPLDPEKVKELQRFITLSKRLLVMTGAGISTESGIPDYRSEKVGLYARTDRRPIQHGDFVRSAPIRQRYWARNFVGWPQFSSHQPNPAHWALSTWEKLGKLYWLVTQNVDALHTKAGSRRLTELHGCMDRVLCLDCGEQTPRGVLQERFQVLNPTWSAEAHGLAPDGDVFLSEEQVRSFQVPTCVQCGGHLKPDVVFFGDTVNPDKVDFVHKRVKEADSLLVVGSSLQVYSGYRFILTAWEKKLPIAILNIGPTRSDDLACLKLNSRCGELLPLIDPC", "notes": "Endogenous SIRT4 of wild-type MRC5 fibroblasts"}},
  "key": {"SIRT3, endogenous": {"target": "T1, SIRT3, endogenous (human, UniProt Q9NTG7 102-399, limits assumed)", "T1 sequence (looked up)": "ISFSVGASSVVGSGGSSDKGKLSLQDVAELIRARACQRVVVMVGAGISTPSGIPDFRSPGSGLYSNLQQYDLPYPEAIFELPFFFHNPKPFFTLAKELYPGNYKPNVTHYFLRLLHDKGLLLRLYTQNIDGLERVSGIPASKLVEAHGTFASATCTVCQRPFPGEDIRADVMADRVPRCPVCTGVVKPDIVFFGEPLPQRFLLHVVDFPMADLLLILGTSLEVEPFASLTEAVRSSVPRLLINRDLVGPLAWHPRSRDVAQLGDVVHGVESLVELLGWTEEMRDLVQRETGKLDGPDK", "assay": "immunoaffinity purification of SIRT4-EGFP from MRC5 mitochondria with mass spectrometry (IP-MS), SAINT scoring", "procedure": "Immunoaffinity Purification. SIRT4-EGFP and control EGFP immunoaffinity purifications (IPs) from MRC5 cells were performed using M270 Epoxy Dynabeads (Invitrogen, cat. #14302D) coupled with in-house generated rabbit anti-GFP polyclonal antibodies, as described previously²⁹. Pooled mitochondria from fractions 3 and 4 from the OptiPrep™ gradient were resuspended in 1 mL optimized Lysis Buffer (20 mM HEPES-KOH, pH 7.4, 0.1 M KOAc, 2 mM MgCl₂, 0.1% Tween-20, 1 μM ZnCl₂, 1 μM CaCl2)), with 0.6% Triton X-100, 200 mM NaCl, and 1/100 (v/v) protease inhibitor cocktail (Sigma, cat. #P8340). Lysed mitochondria were vortexed three times for 20 sec each, and mixed by rotation for 10 min at 4° C. Insoluble material (pellet) was removed by centrifugation at 5000×g for 10 min. The supernatant was collected and SIRT4-EGFP or free EGFP (negative control) was immunoisolated by incubation with 7 mg of GFP-coupled magnetic beads for 60 min at 4° C. […]\nTo investigate potential endogenous substrates of SIRT4, proteomics was used to define its endogenous mitochondrial protein interactions. […] Using direct fluorescence microscopy (co-localization with MitoTracker, FIG. 4) and density-based organelle fractionation (co-isolation with the mitochondrial COX IV, FIG. 1a), we confirmed its mitochondrial localization. […]"}, "[1]": {"target": "T2, PDH component X (PDHX), endogenous (human, UniProt O00330 54-501)", "T2 construct": "Endogenous protein in mitochondrial lysates of MRC5 cells", "T2 sequence (looked up)": "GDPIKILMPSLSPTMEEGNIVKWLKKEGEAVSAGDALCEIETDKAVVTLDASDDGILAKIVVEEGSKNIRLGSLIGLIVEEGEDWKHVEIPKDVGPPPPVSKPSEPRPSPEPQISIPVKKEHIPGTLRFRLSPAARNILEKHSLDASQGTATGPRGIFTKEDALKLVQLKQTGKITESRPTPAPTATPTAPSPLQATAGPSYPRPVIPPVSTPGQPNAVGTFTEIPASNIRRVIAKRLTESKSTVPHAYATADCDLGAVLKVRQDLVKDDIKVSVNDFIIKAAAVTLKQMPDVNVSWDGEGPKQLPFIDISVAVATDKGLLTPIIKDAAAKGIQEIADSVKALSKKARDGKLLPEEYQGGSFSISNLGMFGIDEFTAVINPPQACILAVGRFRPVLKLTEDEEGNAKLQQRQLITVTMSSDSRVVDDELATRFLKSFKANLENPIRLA", "assay": "anti-GFP immunoaffinity purification from MRC5 mitochondria, western blot; confocal co-localization", "procedure": "(§1) Western Immunoblotting. 10 μg of protein from each fraction was resuspended in L SDS Sample Buffer. Each sample was subjected to SDS-PAGE, transferred to nitrocellulose membranes (GE Healthcare Life Sciences, cat. #45-000-929), and blocked in blocked in 5% (w/v) skim milk powder in Tris-buffered saline with 0.05% (v/v) Tween-20 (TBST) for 1 hr at RT. Membranes were probed according to manufacturer's instructions, with the following primary antibodies: mouse anti-GFP (Roche, cat. #11814460001), rabbit anti-LAMP1 (Abcam, cat. #ab24170), rabbit anti-COXIV (Cell Signaling Technology, cat. #4844), rabbit anti-DLAT (Santa Cruz Biotechnology, cat. #sc-32925), or rabbit anti-PDHX (Santa Cruz Biotechnology, sc-98752), for 1 h in TBST, followed by 1 hr incubation in corresponding horseradish peroxidase (HRP)-conjugated secondary antibodies (Jackson ImmunoResearch Laboratories). All antibody incubations were carried out at RT with gentle agitation, and blots washed three times with TBST for 10 min after each incubation. Immuno-targets were detected using ECL (GE Healthcare Life Sciences, cat. #RPN2106).\n(§2) Immunoaffinity Purification. SIRT4-EGFP and control EGFP immunoaffinity purifications (IPs) from MRC5 cells were performed using M270 Epoxy Dynabeads (Invitrogen, cat. #14302D) coupled with in-house generated rabbit anti-GFP polyclonal antibodies, as described previously²⁹. […]"}, "[2]": {"target": "T3, dihydrolipoyllysine acetyltransferase (DLAT), endogenous (human, UniProt P10515 87-647, lipoyl-lysine at K132 and K259)", "T3 construct": "Endogenous protein in mitochondrial lysates of MRC5 cells; also called E2 component of the PDHC", "T3 sequence (looked up)": "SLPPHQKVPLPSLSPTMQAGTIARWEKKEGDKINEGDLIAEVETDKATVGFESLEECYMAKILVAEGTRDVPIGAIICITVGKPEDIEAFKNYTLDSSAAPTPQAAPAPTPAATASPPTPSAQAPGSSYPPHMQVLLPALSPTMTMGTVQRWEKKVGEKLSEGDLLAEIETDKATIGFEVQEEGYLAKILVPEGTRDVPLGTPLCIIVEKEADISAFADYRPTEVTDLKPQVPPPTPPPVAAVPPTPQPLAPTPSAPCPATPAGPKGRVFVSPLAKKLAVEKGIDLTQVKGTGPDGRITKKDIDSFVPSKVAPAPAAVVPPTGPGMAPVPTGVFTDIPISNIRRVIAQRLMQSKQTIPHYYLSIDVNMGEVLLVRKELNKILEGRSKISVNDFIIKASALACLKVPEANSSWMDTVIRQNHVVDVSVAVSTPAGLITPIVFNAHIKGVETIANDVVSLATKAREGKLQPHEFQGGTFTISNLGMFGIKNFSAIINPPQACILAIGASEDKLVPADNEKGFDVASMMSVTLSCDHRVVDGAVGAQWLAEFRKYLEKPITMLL", "assay": "anti-GFP immunoaffinity purification from MRC5 mitochondria, western blot; confocal co-localization", "procedure": "as §1, §2"}, "[3]": {"target": "T3, dihydrolipoyllysine acetyltransferase …", "assay": "reciprocal immunoaffinity purification of DLAT from wild-type fibroblasts, western blot (FIG. 1F)"}},
  "data": [
    {"binder": "B1", "values": [
      {"measurement": "binding result", "setting": "SIRT3, endogenous", "value": "no binding"},
      {"measurement": "binding result", "setting": "[1]", "value": "binds"},
      {"measurement": "binding result", "setting": "[2]", "value": "binds"}
    ]},
    {"binder": "B2", "values": [
      {"measurement": "binding result", "setting": "[3]", "value": "binds"}
    ]}
  ]
}
